Data as given in patent US20150246136A1 (Bayer, published 2015).
Values belong to the binder of their own block, whether it stands above or below them.

Target: Mesothelin (SwissProt reference Q13421-3) (Homo sapiens, UniProt Q13421 37-622)
Experiment: cell-based or functional assay

B1: Example 106, conjugate of anti-mesothelin antibody MF-Ta (antibody, human IgG1, lambda, V domains shown)
VH: QVELVQSGAEVKKPGESLKISCKGSGYSFTSYWIGWVRQAPGKGLEWMGIIDPGDSRTRYSPSFQGQVTISADKSISTAYLQWSSLKASDTAMYYCARGQLYGGTYMDGWGQGTLVTVSS
VL: DIALTQPASVSGSPGQSITISCTGTSSDIGGYNSVSWYQQHPGKAPKLMIYGVNNRPSGVSNRFSGSKSGNTASLTISGLQAEDEADYYCSSYDIESATPVFGGGTKLTVLG
modifications: toxophore-linker on Cys sulfur, sites not given
- IC50 (nM), HT29 meso+ cells, MTT proliferation assay: 0.8 nM

B4: Example 150, conjugate of anti-mesothelin antibody MF-Ta (antibody, human IgG1, lambda, V domains shown)
VH: B1 VH
VL: B1 VL
modifications: toxophore-linker on Lys NH, sites not given
- IC50 (nM), HT29 meso+ cells, MTT proliferation assay: < 0.1 nM

B6: Example 110, conjugate of anti-mesothelin antibody MF-Ta (antibody, human IgG1, lambda, V domains shown)
VH: B1 VH
VL: B1 VL
modifications: toxophore-linker on Cys sulfur, sites not given
- IC50 (nM), HT29 meso+ cells, MTT proliferation assay: 0.002 nM

B7: Example 151, conjugate of anti-mesothelin antibody MF-Ta (antibody, human IgG1, lambda, V domains shown)
VH: B1 VH
VL: B1 VL
modifications: toxophore-linker on Cys sulfur, sites not given
- IC50 (nM), HT29 meso+ cells, MTT proliferation assay: > 1000 nM

B10: Example 129, conjugate of anti-mesothelin antibody MF-Ta (antibody, human IgG1, lambda, V domains shown)
VH: B1 VH
VL: B1 VL
modifications: toxophore-linker on Cys sulfur, sites not given
- IC50 (nM), HT29 meso+ cells, MTT proliferation assay: 5.3 nM

B13: Example 145, conjugate of anti-mesothelin antibody MF-Ta (antibody, human IgG1, lambda, V domains shown)
VH: B1 VH
VL: B1 VL
modifications: toxophore-linker on Lys NH, sites not given
- IC50 (nM), HT29 meso+ cells, MTT proliferation assay: 7.4 nM

B14: Example 132, conjugate of anti-mesothelin antibody MF-Ta (antibody, human IgG1, lambda, V domains shown)
VH: B1 VH
VL: B1 VL
modifications: toxophore-linker on Lys NH, sites not given
- IC50 (nM), HT29 meso+ cells, MTT proliferation assay: 3.3 nM

B17: Example 158, conjugate of anti-mesothelin antibody MF-Ta (antibody, human IgG1, lambda, V domains shown)
VH: B1 VH
VL: B1 VL
modifications: toxophore-linker, coupling residue not stated
- IC50 (nM), HT29 meso+ cells, MTT proliferation assay: 0.18 nM

B20: Example 109, conjugate of anti-mesothelin antibody MF-Ta (antibody, human IgG1, lambda, V domains shown)
VH: B1 VH
VL: B1 VL
modifications: toxophore-linker on Cys sulfur, sites not given
- IC50 (nM), HT29 meso+ cells, MTT proliferation assay: 0.09 nM

B24: Example 135, conjugate of anti-mesothelin antibody MF-Ta (antibody, human IgG1, lambda, V domains shown)
VH: B1 VH
VL: B1 VL
modifications: toxophore-linker on Cys sulfur, sites not given
- IC50 (nM), HT29 meso+ cells, MTT proliferation assay: 0.25 nM

B25: Example 155, conjugate of anti-mesothelin antibody MF-Ta (antibody, human IgG1, lambda, V domains shown)
VH: B1 VH
VL: B1 VL
modifications: toxophore-linker, coupling residue not stated
- IC50 (nM), HT29 meso+ cells, MTT proliferation assay: 0.5 nM

B26: Example 367, conjugate of anti-mesothelin antibody MF-Ta (antibody, human IgG1, lambda, V domains shown)
VH: B1 VH
VL: B1 VL
modifications: toxophore-linker on Lys NH, sites not given
- IC50 (nM), HT29 meso+ cells, MTT proliferation assay: 0.06 nM

B27: Example 131, conjugate of anti-mesothelin antibody MF-Ta (antibody, human IgG1, lambda, V domains shown)
VH: B1 VH
VL: B1 VL
modifications: toxophore-linker on Cys sulfur, sites not given
- IC50 (nM), HT29 meso+ cells, MTT proliferation assay: 0.09 nM

B29: Example 156, conjugate of anti-mesothelin antibody MF-Ta (antibody, human IgG1, lambda, V domains shown)
VH: B1 VH
VL: B1 VL
modifications: toxophore-linker, coupling residue not stated
- IC50 (nM), HT29 meso+ cells, MTT proliferation assay: 4.6 nM

B30: Example 141, conjugate of anti-mesothelin antibody MF-Ta (antibody, human IgG1, lambda, V domains shown)
VH: B1 VH
VL: B1 VL
modifications: toxophore-linker on Cys sulfur, sites not given
- IC50 (nM), HT29 meso+ cells, MTT proliferation assay: 43 nM

B32: Example 115, conjugate of anti-mesothelin antibody MF-Ta (antibody, human IgG1, lambda, V domains shown)
VH: B1 VH
VL: B1 VL
modifications: toxophore-linker on Cys sulfur, sites not given
- IC50 (nM), HT29 meso+ cells, MTT proliferation assay: 0.06 nM

B35: Example 133, conjugate of anti-mesothelin antibody MF-Ta (antibody, human IgG1, lambda, V domains shown)
VH: B1 VH
VL: B1 VL
modifications: toxophore-linker on Cys sulfur, sites not given
- IC50 (nM), HT29 meso+ cells, MTT proliferation assay: 2.1 nM

B42: Example 366, conjugate of anti-mesothelin antibody MF-Ta (antibody, human IgG1, lambda, V domains shown)
VH: B1 VH
VL: B1 VL
modifications: toxophore-linker on Cys sulfur, sites not given
- IC50 (nM), HT29 meso+ cells, MTT proliferation assay: 1.3 nM

B43: Example 153, conjugate of anti-mesothelin antibody MF-Ta (antibody, human IgG1, lambda, V domains shown)
VH: B1 VH
VL: B1 VL
modifications: toxophore-linker on Cys sulfur, sites not given
- IC50 (nM), HT29 meso+ cells, MTT proliferation assay: 30 nM

The next lines start with the values.

- IC50 (nM), HT29 meso+ cells, MTT proliferation assay: 2.2 nM
B2: Example 154, conjugate of anti-mesothelin antibody MF-Ta (antibody, human IgG1, lambda, V domains shown)
VH: B1 VH
VL: B1 VL
modifications: toxophore-linker on Cys sulfur, sites not given

- IC50 (nM), HT29 meso+ cells, MTT proliferation assay: 0.04 nM
B3: Example 137, conjugate of anti-mesothelin antibody MF-Ta (antibody, human IgG1, lambda, V domains shown)
VH: B1 VH
VL: B1 VL
modifications: toxophore-linker on Cys sulfur, sites not given

- IC50 (nM), HT29 meso+ cells, MTT proliferation assay: 0.3 nM
B5: Example 138, conjugate of anti-mesothelin antibody MF-Ta (antibody, human IgG1, lambda, V domains shown)
VH: B1 VH
VL: B1 VL
modifications: toxophore-linker on Cys sulfur, sites not given

- IC50 (nM), HT29 meso+ cells, MTT proliferation assay: 0.018 nM
B8: Example 112, conjugate of anti-mesothelin antibody MF-Ta (antibody, human IgG1, lambda, V domains shown)
VH: B1 VH
VL: B1 VL
modifications: toxophore-linker on Cys sulfur, sites not given

- IC50 (nM), HT29 meso+ cells, MTT proliferation assay: 70 nM
B9: Example 139, conjugate of anti-mesothelin antibody MF-Ta (antibody, human IgG1, lambda, V domains shown)
VH: B1 VH
VL: B1 VL
modifications: toxophore-linker on Cys sulfur, sites not given

- IC50 (nM), HT29 meso+ cells, MTT proliferation assay: 3.1 nM
B11: Example 149, conjugate of anti-mesothelin antibody MF-Ta (antibody, human IgG1, lambda, V domains shown)
VH: B1 VH
VL: B1 VL
modifications: toxophore-linker on Lys NH, sites not given

- IC50 (nM), HT29 meso+ cells, MTT proliferation assay: 1.6 nM
B12: Example 136, conjugate of anti-mesothelin antibody MF-Ta (antibody, human IgG1, lambda, V domains shown)
VH: B1 VH
VL: B1 VL
modifications: toxophore-linker on Lys NH, sites not given

- IC50 (nM), HT29 meso+ cells, MTT proliferation assay: 5.6 nM
B15: Example 147, conjugate of anti-mesothelin antibody MF-Ta (antibody, human IgG1, lambda, V domains shown)
VH: B1 VH
VL: B1 VL
modifications: toxophore-linker on Lys NH, sites not given

- IC50 (nM), HT29 meso+ cells, MTT proliferation assay: 0.09 nM
B16: Example 157, conjugate of anti-mesothelin antibody MF-Ta (antibody, human IgG1, lambda, V domains shown)
VH: B1 VH
VL: B1 VL
modifications: toxophore-linker, coupling residue not stated

- IC50 (nM), HT29 meso+ cells, MTT proliferation assay: 3 nM
B18: Example 107, conjugate of anti-mesothelin antibody MF-Ta (antibody, human IgG1, lambda, V domains shown)
VH: B1 VH
VL: B1 VL
modifications: toxophore-linker on Cys sulfur, sites not given

- IC50 (nM), HT29 meso+ cells, MTT proliferation assay: 4.1 nM
B19: Example 152, conjugate of anti-mesothelin antibody MF-Ta (antibody, human IgG1, lambda, V domains shown)
VH: B1 VH
VL: B1 VL
modifications: toxophore-linker on Lys NH, sites not given

- IC50 (nM), HT29 meso+ cells, MTT proliferation assay: 0.7 nM
B21: Example 111, conjugate of anti-mesothelin antibody MF-Ta (antibody, human IgG1, lambda, V domains shown)
VH: B1 VH
VL: B1 VL
modifications: toxophore-linker on Cys sulfur, sites not given

- IC50 (nM), HT29 meso+ cells, MTT proliferation assay: 0.03 nM
B22: Example 134, conjugate of anti-mesothelin antibody MF-Ta (antibody, human IgG1, lambda, V domains shown)
VH: B1 VH
VL: B1 VL
modifications: toxophore-linker on Cys sulfur, sites not given

- IC50 (nM), HT29 meso+ cells, MTT proliferation assay: 425 nM
B23: Example 148, conjugate of anti-mesothelin antibody MF-Ta (antibody, human IgG1, lambda, V domains shown)
VH: B1 VH
VL: B1 VL
modifications: toxophore-linker on Lys NH, sites not given

- IC50 (nM), HT29 meso+ cells, MTT proliferation assay: 2.7 nM
B28: Example 144, conjugate of anti-mesothelin antibody MF-Ta (antibody, human IgG1, lambda, V domains shown)
VH: B1 VH
VL: B1 VL
modifications: toxophore-linker on Lys NH, sites not given

- IC50 (nM), HT29 meso+ cells, MTT proliferation assay: 0.74 nM
B31: Example 108, conjugate of anti-mesothelin antibody MF-Ta (antibody, human IgG1, lambda, V domains shown)
VH: B1 VH
VL: B1 VL
modifications: toxophore-linker on Cys sulfur, sites not given

- IC50 (nM), HT29 meso+ cells, MTT proliferation assay: 0.13 nM
B33: Example 130, conjugate of anti-mesothelin antibody MF-Ta (antibody, human IgG1, lambda, V domains shown)
VH: B1 VH
VL: B1 VL
modifications: toxophore-linker on Cys sulfur, sites not given

- IC50 (nM), HT29 meso+ cells, MTT proliferation assay: 13 nM
B34: Example 146, conjugate of anti-mesothelin antibody MF-Ta (antibody, human IgG1, lambda, V domains shown)
VH: B1 VH
VL: B1 VL
modifications: toxophore-linker on Lys NH, sites not given

- IC50 (nM), HT29 meso+ cells, MTT proliferation assay: 0.27 nM
B36: Example 142, conjugate of anti-mesothelin antibody MF-Ta (antibody, human IgG1, lambda, V domains shown)
VH: B1 VH
VL: B1 VL
modifications: toxophore-linker on Cys sulfur, sites not given

- IC50 (nM), HT29 meso+ cells, MTT proliferation assay: 0.4 nM
B37: Example 113, conjugate of anti-mesothelin antibody MF-Ta (antibody, human IgG1, lambda, V domains shown)
VH: B1 VH
VL: B1 VL
modifications: toxophore-linker on Lys NH, sites not given

- IC50 (nM), HT29 meso+ cells, MTT proliferation assay: 177 nM
B38: Example 159, conjugate of anti-mesothelin antibody MF-Ta (antibody, human IgG1, lambda, V domains shown)
VH: B1 VH
VL: B1 VL
modifications: toxophore-linker, coupling residue not stated

- IC50 (nM), HT29 meso+ cells, MTT proliferation assay: 0.3 nM
B39: Example 143, conjugate of anti-mesothelin antibody MF-Ta (antibody, human IgG1, lambda, V domains shown)
VH: B1 VH
VL: B1 VL
modifications: toxophore-linker on Lys NH, sites not given

- IC50 (nM), HT29 meso+ cells, MTT proliferation assay: 3.1 nM
B40: Example 368, conjugate of anti-mesothelin antibody MF-Ta (antibody, human IgG1, lambda, V domains shown)
VH: B1 VH
VL: B1 VL
modifications: toxophore-linker on Lys NH, sites not given

- IC50 (nM), HT29 meso+ cells, MTT proliferation assay: 0.6 nM
B41: Example 114, conjugate of anti-mesothelin antibody MF-Ta (antibody, human IgG1, lambda, V domains shown)
VH: B1 VH
VL: B1 VL
modifications: toxophore-linker on Cys sulfur, sites not given

- IC50 (nM), HT29 meso+ cells, MTT proliferation assay: 6.8 nM
B44: Example 140, conjugate of anti-mesothelin antibody MF-Ta (antibody, human IgG1, lambda, V domains shown)
VH: B1 VH
VL: B1 VL
modifications: toxophore-linker on Lys NH, sites not given
